Where no end group is shown, it is not given here.
Tests used:
MAPT(2-24) = biological target: T1, MAPT(2-24) (human, biotinylated); assay: ELISA, biotinylated peptide on Neutravidin plate, IgG titrated, A450 nm
T1 construct: also called Tau fragment 2-24
T1 peptide: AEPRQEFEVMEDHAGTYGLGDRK
Description: (§1) Following a comparison of 37D3-H9 binding to biotinylated Tau monomer and biotinylated peptide (MAPT_10-24), binding of 37D3-H9 to additional biotinylated peptides was also assessed. Nunc maxisorp 96-well microplates were coated at 4° C. for >12 hours with Neutravidin diluted to 2 μg/ml in 50 mM Sodium Carbonate Buffer, pH 9.6. All subsequent incubations were performed at room temperature. After coating, plates were blocked with Superblock™ (PBS) Blocking Buffer (Thermo Fisher Scientific) for two hours then washed thoroughly with PBS, 0.05% Polysorbate 20. Wells were then exposed to biotinylated Tau peptides (Table 20) or Avi-tag biotinylated Tau monomer at 1 μg/ml for one hour and washed as previously. Peptides were synthesized using standard solid-phase Fmoc chemistry (see, e.g., Fmoc solid phase peptide synthesis: A practical approach; Chan, W. C., White, P. D., Eds.; Oxford University Press: New York, 2000). Antibodies 37D3-H9 mIgG2a and hu37D3-H9.v5 hIgG1, serially diluted from 500 nM to 50 pM in 90% Superblock™ (PBS) Blocking Buffer, were allowed to bind biotinylated-Tau coated wells for 90 minutes. Wells were washed as previously and bound antibody detected with peroxidase-conjugated secondary antibody (Invitrogen/Life Technologies) diluted 1/1000 in Superblock™ Blocking Buffer (Rabbit anti-Mouse IgG or Goat Anti-Human IgG (H+L) respectively). After twenty minutes wells were washed as previously and signal developed with TMB Microwell 2-Component Substrate (KPL). Reactions were stopped by addition of 1M Phosphoric Acid and absorbance at 450 nm was measured with a SpectraMax M2 platereader.

MAPT(2-34) = biological target: T2, MAPT(2-34) (human, biotinylated); assay: as above
T2 construct: also called Tau fragment 2-34
T2 peptide: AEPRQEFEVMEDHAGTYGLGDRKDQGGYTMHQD
Description: as §1

[1] = biological target: T3, full-length human Tau (flTau) (human, UniProt P10636-8 1-441); assay: SPR, hybridoma Ab on anti-IgG chip, flTau analyte
T3 construct: range 1-441; bought (SignalChem); also called human Tau-441
T3 sequence (P10636 other isoform, or with tags, fused parts or gaps limits assumed): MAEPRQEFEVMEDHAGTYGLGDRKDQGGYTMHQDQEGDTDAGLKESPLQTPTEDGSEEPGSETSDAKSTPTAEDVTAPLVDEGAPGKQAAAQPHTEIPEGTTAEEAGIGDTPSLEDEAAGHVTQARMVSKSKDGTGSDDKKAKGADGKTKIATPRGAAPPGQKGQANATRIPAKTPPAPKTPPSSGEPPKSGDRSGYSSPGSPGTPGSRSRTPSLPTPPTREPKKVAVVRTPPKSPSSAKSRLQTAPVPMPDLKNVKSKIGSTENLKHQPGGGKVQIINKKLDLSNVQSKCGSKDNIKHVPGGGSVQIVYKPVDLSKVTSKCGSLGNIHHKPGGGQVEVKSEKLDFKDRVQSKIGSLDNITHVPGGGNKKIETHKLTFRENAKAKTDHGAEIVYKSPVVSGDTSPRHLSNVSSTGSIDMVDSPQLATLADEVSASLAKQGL
Outline: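 Unpurified antibodies from serum-free hybridoma supernatants were captured on an anti-IgG SPR chip (Biacore T-100), and flTau was flowed as analyte. KD was obtained from kinetic analysis with a 1:1 Langmuir fit.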

[2] = biological target: T4, recombinant human Tau monomer, 2N4R isoform (amino acids 2-441) (human, UniProt P10636-8 2-441); assay: SPR, mIgG2a captured, Tau monomer analyte, 1:1 fit
T4 construct: range 2-441; N-terminal His-tag removed with TEV protease; also called monomeric Tau
Outline: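 Antibodies in mIgG2a format captured on anti-mouse IgG surface at 1 μg/ml (30 or 45 s) or 0.1 μg/ml (70 or 150 s), 10 μl/min, in HBSP (10 mM HEPES pH7.4, 150 mM NaCl, 0.05% Tween 20). Tau monomer flowed as analyte; association 180-480 s, dissociation 300-600 s, 1:1 fit.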
Target sequence in this assay (P10636 other isoform, or with tags, fused parts or gaps limits assumed): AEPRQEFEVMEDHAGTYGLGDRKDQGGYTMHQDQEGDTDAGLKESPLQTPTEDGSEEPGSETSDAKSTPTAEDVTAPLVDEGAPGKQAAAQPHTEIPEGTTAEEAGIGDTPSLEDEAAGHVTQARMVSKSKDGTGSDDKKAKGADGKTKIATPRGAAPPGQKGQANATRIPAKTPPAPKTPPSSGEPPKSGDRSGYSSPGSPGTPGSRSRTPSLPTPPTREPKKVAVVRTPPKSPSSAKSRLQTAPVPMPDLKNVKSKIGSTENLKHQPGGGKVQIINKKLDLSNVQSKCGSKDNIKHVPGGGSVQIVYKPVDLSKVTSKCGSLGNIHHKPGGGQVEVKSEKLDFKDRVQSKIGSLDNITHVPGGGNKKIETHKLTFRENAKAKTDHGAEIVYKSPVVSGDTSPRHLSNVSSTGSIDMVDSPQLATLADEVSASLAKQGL

[3] = biological target: T4, recombinant human Tau monomer, 2N4R …; assay: SPR single-cycle, Tau monomer amine-coupled, IgG analyte; IgG (bivalent, avidity); Tau monomer on the chip
Description: (§2) Human monomer Tau protein was covalently coupled to a Biacore Series S CM5 chip using the Biacore Amine Coupling Kit (GE Life Sciences), resulting in immobilization to a level of approximately 128 RU. Direct binding of 37D3-H9 in both Fab and IgG formats was monitored using the single-cycle kinetics experimental format with five association periods of 300s each and antibody concentrations of 1, 2, 4, 8 and 16 nM (IgG) or 5, 10, 20, 40 and 80 nM (Fab). Dissociation was monitored for 7200 seconds (Fab) or for 14400 seconds (IgG). A value for the dissociation rate was calculated by fitting a 1:1 binding model to the data.

Tau fragment 28-42 = biological target: T5, Tau fragment 28-42 (human, UniProt P10636-8 28-42, not fully specified); assay: ELISA on Tau 15-mer peptides, O.D.; conditions of this panel not given
T5 construct: range 28-42
T5 peptide (looked up): GYTMHQDQEGDTDAG

Tau fragment 19-33 = biological target: T6, Tau fragment 19-33 (human, UniProt P10636-8 19-33, not fully specified); assay: as above
T6 construct: range 19-33
T6 peptide (looked up): GLGDRKDQGGYTMHQ

Tau fragment 37-51 = biological target: T7, Tau fragment 37-51 (human, UniProt P10636-8 37-51); assay: as above
T7 construct: range 37-51
T7 peptide (looked up): GDTDAGLKESPLQTP

MAPT(10-24) = biological target: T8, MAPT(10-24) (human, also: biotinylated, site not given here); assay: as above
T8 construct: also called Tau fragment 10-24
T8 peptide: VMEDHAGTYGLGDRK

Tau fragment 1-15 = biological target: T9, Tau fragment 1-15 (human, UniProt P10636-8 1-15); assay: as above
T9 construct: range 1-15
T9 peptide (looked up): MAEPRQEFEVMEDHA

Tau fragment 2-21 L20A = biological target: T10, Tau fragment 2-21 L20A (human, UniProt P10636-8 2-21); assay: alanine scanning of Tau fragment 2-21
T10 construct: range 2-21
T10 peptide (looked up): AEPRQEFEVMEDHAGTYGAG

Tau fragment 2-21 Y18A = biological target: T11, Tau fragment 2-21 Y18A (human, UniProt P10636-8 2-21); assay: alanine scanning of Tau fragment 2-21
T11 construct: range 2-21
T11 peptide (looked up): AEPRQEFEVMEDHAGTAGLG

Tau fragment 11-25 = biological target: T12, Tau fragment 11-25 (human, UniProt P10636-8 11-25, not fully specified); assay: 15mer offset peptides
T12 construct: range 11-25
T12 peptide (looked up): MEDHAGTYGLGDRKD

Tau fragment 8-22 = biological target: T13, Tau fragment 8-22 (human, UniProt P10636-8 8-22); assay: 15mer offset peptides
T13 construct: range 8-22
T13 peptide (looked up): FEVMEDHAGTYGLGD

Tau fragment 7-21 = biological target: T14, Tau fragment 7-21 (human, UniProt P10636-8 7-21); assay: 15mer offset peptides
T14 construct: range 7-21
T14 peptide (looked up): EFEVMEDHAGTYGLG

Tau fragment 9-23 = biological target: T15, Tau fragment 9-23 (human, UniProt P10636-8 9-23); assay: 15mer offset peptides
T15 construct: range 9-23
T15 peptide (looked up): EVMEDHAGTYGLGDR

[4] = biological target: T4, recombinant human Tau monomer, 2N4R …; assay: SPR single-cycle, Tau monomer amine-coupled
Description: as §2

- binding result (MAPT(2-24)): binds
- binding result (MAPT(2-34)): binds
- Kd [1]: 1 nM
- Kd [2]: 1.6 nM
- koff [2]: 0.0001 s⁻¹
- kon [2]: 100000 M⁻¹ s⁻¹
- koff [3]: 1.1e-05 s⁻¹
- binding result (Tau fragment 28-42): no binding (tested: not given)
- binding result (Tau fragment 19-33): no binding (tested: not given)
- binding result (Tau fragment 37-51): no binding (tested: not given)
- binding result (MAPT(10-24)): binds
- binding result (Tau fragment 1-15): no binding (tested: not given)
- binding result (Tau fragment 2-21 L20A): no binding
- binding result (Tau fragment 2-21 Y18A): no binding
- binding result (Tau fragment 11-25): binds
- binding result (Tau fragment 8-22): binds
- binding result (Tau fragment 7-21): binds
- binding result (Tau fragment 9-23): binds
- fold difference in dissociation rate, Fab against IgG [4]: 45 fold
B1: 37D3-H9 (antibody, mouse IgG2a, V domains shown)
VH: EVQLVESGGDLAKPGGSLKLSCTASGLIFRSYGMSWVRQTPDKRLEWVATINSGGTYTYYPDSVKGRFTISRDNAKNTLYLQMSSLKSEDTAMYYCANSYSGAMDYWGQGTSVTVSS
VL: DDLLTQTPLSLPVSLGDPASISCRSSQSIVHSNGNTYFEWYLQKPGQSPKLLIYKVSNRFSGVPDRFSGSGSGTDFTLKISRVEAEDLGVYYCFQGSLVPWTFGGGTKLEIK
notes: also called 37D3-H9 mIgG2a; 37D3-H9 IgG
